# Data: the nanobody polyreactivity screen of Harvey et al. (2022)
# Assay: yeast display, Sf9 membrane polyspecificity reagent, FACS + sequencing; frameworks hold sequencing errors
# Outline: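 Galactose induction of a Saccharomyces cerevisiae BJ5465 synthetic nanobody display library ran 36–48 hours. The cells were then stained for 1 hour at 4 °C with 10% biotinylated, detergent-solubilized Sf9 membrane reagent, pulled down on streptavidin microbeads and FACS-sorted into low and high (top ~1%) gates on expression and reagent-binding fluorescence. Labels for polyreactivity follow the gate of origin.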
sequence,measurement,value
QVQLVESGGGLVQAGGSLRLSCAASGNIFNDNAKGLYRKAPVKERELVAAISSGGSTNYADSVKGRFTISRDYAKNTVYLQMNSLKPEDTAVYYCAAELTLIYWWSLDYWGQGTQVTVSS,polyreactivity (PSR sort gate),low polyreactivity
QVQLVESGGGLVQAGGSLRLSCAASGRTFGINAMGWYRQAPGKERELVARIRKTVGSTYYADSVKGRFTISRDNAKNTVYLQMNSLKPEDTAVYYCAADLRYGYLYPYDSWGQGTQVTVSS,polyreactivity (PSR sort gate),high polyreactivity
QVQLVESGGGLVQAGGSLRLSCAASGRTLRRYAMGWYRQAPGKERELVAGISRNGGSTYYADSVKGRFTISRDNAKNTVYLQMNSLKPEDTAVYYCNADDKAQSDYWGQGTQVTVSS,polyreactivity (PSR sort gate),high polyreactivity
QVQLVESGGGLVQAGGSLRLSCAASGNIFKHYAMGWYRQAPGKERELVAAITWSGGSTHYADSVKGLFTISRDNAKNTVYLQMNSLKPEDTAVYYCAARGWWPGTKWTRYDYWGQGTQVTVSS,polyreactivity (PSR sort gate),high polyreactivity
QVQLVESGGGLVQAGGSLRLSCAASGRILYKYAMGWYRQAPGKERELVAAISRRGGSTFYADSVKGRFTISRDNAKNTVYLQMNSLKPEDTAVYYCAAGSTRYAGWTYNYWGQGTQVTVSS,polyreactivity (PSR sort gate),high polyreactivity
QVQLVESGGGLVQAGGSLRLSCAASGSTFSLYALGWYRQAPGKERELVAAITRGGNTYYADSVKGRFTISRDNAKNTVYLQMNSLKPEDTAVYYCNAVFPKTRSYAYGYWGQGTQVTVSS,polyreactivity (PSR sort gate),high polyreactivity
QVQLVESGGGLVQAGGSLRLSCAASGSTFSRNAMGWYRQAPGKERELVAAITLRGTNTYYADSVKGRFTISRDNAKNTVYLQMNSLKPEDTAVYYCAALRRGSGRYDMDYWGQGTQVTVSS,polyreactivity (PSR sort gate),high polyreactivity
QVQLVESGGGLVQAGGSLRLSCAASGFIFQPYAMGWYRQAPGKERELVAAITSRGGRTYYADSVKGRITISRDNAKNTVYLQMNSLKPEDTAVYYCNADIYASEYYYWGQGTQVTVSS,polyreactivity (PSR sort gate),low polyreactivity
QVQLVESGGGLVQAGGSLRLSCAASGFIFLYNVMGWYRQAPGKERELVAAISWRGGTYYAHSVKGRFTISRDNAKNTVYLQMNSLKPEDTAVYYCAKKQRYYGRMDYWGQGTQVTVSS,polyreactivity (PSR sort gate),high polyreactivity
QDQLVESGGGLLQAGGSLSLSCAASGFTIYGYAMVWYRQAPGKERELVAAITNSGGRTYYADSVKGRFTISRDNAKNSVYLQMKSLKPEFTAVYFCAVDDLRGYDYWGQGTQVTVSS,polyreactivity (PSR sort gate),low polyreactivity
QVQLVESGGGLVQAGGSLRLSCAASGRTFYSNTMGWYRQAPGNERELVAAISRSGVGTYYADSVKGRFTISRDIAKNSVYLHMNSLKPEDTAVYYCAALPTGKSGYLYDYWGQGTQVTVSS,polyreactivity (PSR sort gate),high polyreactivity
QVQRVESGGGLVQAGGSLRLSCAASGRTFYGYAMGWYRQAPGKDRELVASISWSTGSTHYADSVKGRFTISRVNAKNTVYVQMNSLKPEATAVYYCAAPFWRDSYVQIDYDYWGQGTQVTVSS,polyreactivity (PSR sort gate),low polyreactivity
QVQLVESGGGLVQAGGSLRLSCAASGFIFWDYAMGWNRQAPRKERELVAAISDSGGDTYYADSVKGRFTISRDNAKNTVYLQMNSLIPEDTAVYYCAADVVLWVFRGQQYDYWGQGTQVTVSS,polyreactivity (PSR sort gate),low polyreactivity
QVQLVESGGGLVQAGGSLRLSCAASGFTFLKYAMGWYRQAPGKERELVARITSGGRTYYADSVKGRFTISRDNAKNTVYLQMNSLKPEDTAVYYCNAVKSYASLYAGFYYWGQGTQVTVSS,polyreactivity (PSR sort gate),high polyreactivity
QVQLVESGGGLVQAGGSLRLSCAASGRIFYTNAMGWYRQAPGKERELVAGIRFNGGSTYYADSVKGRFTISRDNAKNTVYLQMNSLKPEDTAVYYCAVRTYYSGYDSWGQGTQVTVSS,polyreactivity (PSR sort gate),low polyreactivity
QVQLVESGGGLVQAGGSLRLSCSASGRIFGAYAMGWYRQAPGKERELVAAITSAGSAHYADYVKGRFTISRDNAKNTVYLQMNSLKPEDTAVYYCAADGIARAYVLFYAYDFLYDYWGQGTQVTVSS,polyreactivity (PSR sort gate),low polyreactivity
QVQLVESGGGLVQAGGSLRISCAASGSTNEYAMGWYRQAPGKERELVAAITWSGGRTYYADSVKGRFTISRDNAKNTVYLQMNSLKPEDTAVYYCAKAYYARHGRYTYYSWGQGTQVTVSS,polyreactivity (PSR sort gate),high polyreactivity
QVQLVESGGGLVQAGGSLRLSCAASGNTFYGYAMGWYRQAPGKERDLVATITGSGGDTYYADSVKGRFTISRDNAKNTVYLKMNSLKPEDTAVYYCNAVEYYGGYPGTQYYYLAYNYWGQGTQVTVSS,polyreactivity (PSR sort gate),low polyreactivity
QVQLVESGGGLVQAGGSLRLSCAASGSIFVDNAMGWYRQAPGKERELVAAITDSGGRTYYADSVKGRFTISRDNAKNTVYLQMNSLKPEDTAVYYCAAGQSGYAGRRPAFGYWGQGTQVTVSS,polyreactivity (PSR sort gate),low polyreactivity
QVQLVESGGGLVQAGGSLRLSCAASGSIFSGYMGWYRQAPGKERELVATITSGGSTYADSVKGRFTISRDNAKNTVYLQMNSLKPEDTAVYYCAADVSFYTSKYDYWGQGTQVTVSS,polyreactivity (PSR sort gate),low polyreactivity
QVHLVESGGGLVQAGCSLRLSCAASGSTSASYAMGCDRQAPGKERELVAAISGRGTTTYYADSVKGRFTISRDNAKNTVYLQMNSLKPEDTAVYYCAVYRRGGVEAFLYWGQGTQVTVSS,polyreactivity (PSR sort gate),high polyreactivity
QVQLVESGGGLVHAGGSLRLSCAASGSIYYGNAMGWYIQAPGKERELVARISWSGSNTRYADSVKGRFTISRDNSKITVYLQMNSLKPEDTAVYYCNRGSYQTSFFRYDYWGQGTQVTVSS,polyreactivity (PSR sort gate),high polyreactivity
QVQLVESGGGLVQAGGSLRLSCAASGFTFAYYAMGWYRQAPGKERELVAAISSGDNTNYADSVKGRFTISRDNAKNTVYLQMNSLKPEDTAVYYCNAEYNFKWWGPYWYYVKDDYWGQGTQVTVSS,polyreactivity (PSR sort gate),low polyreactivity
QVQLVESGGGLVQAGGSLRLSCAASGFIFSGYTMGWYRQAPGKERELVAAITKRGGRTYYADSVKGRFTISRDNAKNTVYLQMNSLKPEDTAVYYCNVDVKVYSDETTDGDYWGQGTQVTVSS,polyreactivity (PSR sort gate),high polyreactivity
QVQLVESGGGLVQAGGSLRLSCAASGRIFGYYDMGWYRQAPGKERELVAAITWSGGSTYYADSVKGRFTISRDNAKNTVYLQMNSLKPEDTAVYYCAAEKRYRKAFDYWGQGTQVTVSS,polyreactivity (PSR sort gate),high polyreactivity
QVQLVESGGGLVQAGGRLRLSCAASGSTFSYYAMGWYRQAPGKEREMVAAISRTGGSTYYADSVKGRCTISRDNAKNTVYLQMNSLKAEDTAFYYCNARAPVGTFDYDYWGQGTQVTVSS,polyreactivity (PSR sort gate),low polyreactivity
QVQLVESGGGLVQAGGSLRLSCAASGSIFRYYAMGGYIQAPGKERELVAAISGDSGRTYYADSVKGRFTISRDNAKNTVYFQMNSLNPDDTAVYYCNARVAYRYRTGYDYWGQGTQVTVSS,polyreactivity (PSR sort gate),high polyreactivity
QVQHVESGGGLVQAGGSLSLSCAASGRTILWNAMGWYRQAPGKERELVAAITSGGRTYYADSVKGRFTISRDNAKNTVYLQMNSLIPEDTAVYYCAASTVYWSTVNSQARFNYWGQGTQVTVSS,polyreactivity (PSR sort gate),high polyreactivity
QVQLVESGGGLVQAGGSLRLSSAASGNIIKYYAMGCYRQEPGKERELVAAINWSGGSTYYADSVKGRFTISRDNAKNTVYLQMNSLKPEDTAVYYCNVFSSGYYLFDYWGQGTQVTVSS,polyreactivity (PSR sort gate),high polyreactivity
QVQLVESGGGLVQAGGSLRLSCAASGSIFDDYAMGWYRQAPGNERELVAAITSGGSTYYADSVKGRFTISRDNAKNTVYLQMNSLKPEDTAVYYWAAPENKSDEYDYWGQGTQVTVSS,polyreactivity (PSR sort gate),low polyreactivity
QVQLVESGGGLVQAGGSLRLSCAASGRIFRTYAMGWYRQAPGKERELVASISWGGGSRTYADSVKGRFTISRDNAKNTVYLQMNSLKPEDTGVYYCAADVHYTFGMDYWGQGTQVTVSS,polyreactivity (PSR sort gate),high polyreactivity
QVQLVESGGGLVQAGGSLRLSCAASGFIFPTYAMGWYRQAPGKERELVATITSAVRTKYADSVKGRFTISRDNAKNTVYLQMNSLKPEDTAVYYSAAAYTVARFYRYYYWGQGTQVTVSS,polyreactivity (PSR sort gate),high polyreactivity
QVQLVESGGGLVQAGGSLRLSCAASGRTFQYNAMGWYRQAPGKEREFVAGITSIGGRTYYADSVKGRFTISRDNAKNTVYLQMNSLKPEETAVYYCAAVRGLAVGYDYWGQGTQVTVSS,polyreactivity (PSR sort gate),high polyreactivity
QVQLVESGGGLVQAGGSLRLSCAASGRTFQNYAMGWYRQAPGKERELVADITSGGSTYADSVKGRFTISRDNAKNTVYLQMNSLKPEDTAVYYCNADRTYPEPAEYYYWGQGTQVTVSS,polyreactivity (PSR sort gate),low polyreactivity
QVQLVESGGGLVQAGGSLRLSCAASASIFVNNAKGWYRQATGKERELVAAISSRSSRTIYADSVKGRFTISRDNAKKTVYLQMNSLKPEDTAVYYCAVKKRAPDGDYWGQGTQVTVSS,polyreactivity (PSR sort gate),high polyreactivity
QVQLVESGGGLVQAGGSLRLSCAASGSIFYLYAMGWYRQAPGKERELVAAITSGDSTTYADSVKGRFTISRDNAKNTVYLQMNSLKPEDTAVYYCAADWPGLVGYHNSAENDYWGQGTQVTVSS,polyreactivity (PSR sort gate),low polyreactivity
QVQIEESGGGLVQAGGSLRLSCAASGSIFGKYAMGWYRQAPGKERELVAAITWSGGYTRYADSGKGRFTISRDKAKNTVYLLMNSLKPEDTAVYYCADPSTESKYYYWGQGTQVTVSS,polyreactivity (PSR sort gate),high polyreactivity
QVQLVESGGGLVQAGGSLRLSCAASGRTFYWYVMGWYRQAPGKERELVATITSGGSSNYADSVKGRFTISRDNAKNTVYLQRNSLKPEDTAVYYCNRDRLVRYEAEYDYWGQGTQVTVSS,polyreactivity (PSR sort gate),low polyreactivity
QVQLVESGGGLVQAGGSLRLSCAASGSIFVWYAMGWYRQAPGKERELVAAINWSGGRTYYADSVKGRFTISRDNAKNTVYLQMNSLKPEDTAVSYCNKVVPGYSAAKYDYWGQGTQVTVSS,polyreactivity (PSR sort gate),high polyreactivity
QVQLVESGGGLVQAGGSLRLSCAASGSTFGYYAMGWYRQAPGKERELVAAISWSGGSTYYADSVKGRFTISRDNAKNTVYLQMNSLKPEDTAVYYCNKVRGKTYYGEGDYWGQGTQVTVSS,polyreactivity (PSR sort gate),high polyreactivity
QVQLVESGGGLVQAGGSLRLSCAASGLIFARYAMGWYRQAPGKERELVAAISSSGVSTDYADSVKGRFTISRDNAKNTVYLQMNSLKPEDTAVYYCAKRTGSRVRGGKYGYWGQGTQVTVSS,polyreactivity (PSR sort gate),high polyreactivity
QVQLVDSGGGLVQAGGSLRLSCSASGIIFRYYTMVWYRQDPGKERELVASISRSGGNTYYADSVKGRFTISRDNAMNTVYLQMNSLKPEDTAVYYCAARRHQKYQESNYWGQGTQVTVSS,polyreactivity (PSR sort gate),high polyreactivity
QVQLVESGGGLVQAGCSLRLSCSASGLTFYANAMGWYRQAPGKERELVAAISKSGGNTYYAYSVKGRFTISRDNAKNTVYLQMNSLKPEDTAVYYCAVGYPRGYVDVDSWGQGTQVTVSS,polyreactivity (PSR sort gate),high polyreactivity
